{
  "source": "patent US20070071773",
  "key": {"[1]": {"target": "recombinant human IL-8/CXCL8 (UniProt P10145)", "sequence (P10145 28-99)": "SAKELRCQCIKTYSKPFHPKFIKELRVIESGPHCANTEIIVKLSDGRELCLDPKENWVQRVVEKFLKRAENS"}, "recombinant murine MIP-2": {"target": "T1, recombinant murine MIP-2 (UniProt P10889)", "T1 sequence": "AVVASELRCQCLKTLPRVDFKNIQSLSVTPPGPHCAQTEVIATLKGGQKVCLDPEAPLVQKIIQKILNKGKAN"}},
  "data": [
    {"substance": "trypsin-like GAS protease (chemokine protease released into the culture supernatant of GAS strain JS95)", "values": [
      {"measurement": "IL-8 degradation (Western blot)", "setting": "[1]", "result": "JS95 supernatant effectively degraded IL-8"},
      {"measurement": "MIP-2 degradation (dot blot)", "setting": "recombinant murine MIP-2", "result": "The supernatant of JS95 degraded more than 80% of the recombinant MIP-2 protein"}
    ]}
  ]
}
